This note sets out measurements from a protein production outcome set (Wang et al. 2014).

The nature of the data set: label from the status in PepcDB records.

Regarding “MRTIIALETHDVRFPTSRELDGSDAMNPDPDYSAAYVVLRTDGAEDLAGYGLVFTIGRGNDVQTAAVAALAEHVVGLSVDKVIADLGAFARRLTNDSQLRWLGPEKGVMHMAIGAVINAAWDLAARAANKPLWRFIAELTPEQLVDTIDFRYLSDALTRDEALAILRDAQPQRAARTATLIEQGYPAYTTSPGWLGYSDEKLVRLAKEAVADGFRTIKLKVGANVQDDIRRCRLARAAIGPDIAMAVDANQRWDVGPAIDWMRQLAEFDIAWIEEPTSPDDVLGHAAIRQGITPVPVSTGEHTQNRVVFKQLLQAGAVDLIQIDAARVGGVNENLAILLLAAKFGVRVFPHAGGVGLCELVQHLAMADFVAITGKMEDRAIEFVDHLHQHFLDPVRIQHGRYLAPEVPGFSAEMHPASIAEFSYPDGRFWVEDLAA”, the protein production entry is on record as “not failed”.
The entry for “MRTISFFNNKGGVGKTTLSTNVAHYFALQGKRVLYVDCDPQCNATQLMLTEEQTESIYLDGLNDEVAERNSLAKTVYAIFVPLREGESQIAAEITPMRSERFGVDVLPGHPALSQIEDLMSDSWQSALGRQTGPFRRIHWAGQLAHAMERDDRYDVIFFDVGPSLGPFNRTVLLGCDAFVTPTATDLFSFHAFGNLARWFDAWVTQ” is “failed”.
The entry for “MRTIWLVFIANFKRAYSNKKKFFINLLVPVAAIILAIVVNYVSSPSLNIGVNEKIKSKGGDRIVKMLKHTRGINAKVCHGELMKTEVILGKYDAVVTIKRKLGKNSFNNMSKYFEFYNVRDKKTNEDMKKLIKAYLVQNKTLNMERIVKDEQIGGLSKSERIIAFLATVLLITSVVNGAVIIRDREENTYYRYMYSPNSKFEYIFGNVIYNYIFSYIQLFIANSLMAIFGIYIGISFLKMLSYGLILTLVMTTFGTFIVCIFNKELYANMFSAAISLILSLVGGTFINYKIMPEGLRRISDVTPNRWIIKSVQYMQNGRFGSINPMMVLIAFSIMFSLAAVLVSKFHKVQFK” is “failed”; for “MRTLILAAALALAPLSAAAQDRAQTLADIKAEIAALQGQFNDLKRELVSTGAATSGAAGGSALQRMDAMEAAIAQVTAKAESLELKINRVVSDGSNRVGDLEFRVCELEEGCDIGAIGETKPLGGEASAAPAPTPAPAPAADPAGTFAVNEKADFDRAQEVLGQGDFRTAADLFKTFAETYTGGQLTYEAHYLRGEALSRLGETANAARAYLESFSGDPDGPRAPEALLKLGRALGDLRQTPEACVTLAEVGTRFPGSPSAAEAATTMQGLGCS” it is “failed”; for “MRTPCSQHRRDRPSAIGSQLPDADTLDTRQPPLQEIPISSFADKTFTAPAQIRNFCIIAHIDHGKSTLADRMLQLTGVVDERSMRAQYLDRMDIERERGITIKAQNVRLPWRVDKTDYVLHLIDTPGHVDFTYEVSRALEACEGAVLLVDAAQGIEAQTLANLYLALDRDLHIIPVLNKIDLPAADPDRYAAEMAHIIGCEPAEVLRVSGKTGEGVSDLLDEVVRQVPPPQGDAEAPTRAMIFDSVYDIYRGVVTYVRVVDGKISPRERIMMMSTGATHELLEVGIVSPEPKPCEGLGVGEVGYLITGVKDVRQSKVGDTVTSLSRARGAAAEALTGYREPKPMVYSGLYPVDGSDYPNLRDALDKLQLNDAALTYEPETSVALGFGFRCGFLGLLHMEITRERLEREFGLDLISTSPNVVYRVHKDDGTEIRVTNPSDWPEGKIRTVYEPVVKTTIIAPSEFIGTIMELCQSRRGELGGMDYLSPERVELRYTMPLGEIIFDFFDALKSRTRGYASLDYEEAGEQEAALVKVDILLQGEAVDAFSAIVHKDTAYAYGNKMTTKLKELIPRQQFEVPVQAAIGSKIIARENIRAIRKDVLSKCYGGDITRKRKLLEKQKEGKKRMKTIGRVEVPQEAFVAALSTDAAGDKGKK” it is “failed”.
The entry for “MRVDELRVDERIKSTLKERGIESFYPPQAEALKSGILEGKNALISIPTASGKTLIAEIAMVHRILTQGGKAVYIVPLKALAEEKFQEFQDWEKIGLRVAMATGDYDSKDEWLGKYDIIIATAEKFDSLLRHGSSWIKDVKILVADEIHLIGSRDRGATLEVILAHMLGKAQIIGLSATIGNPEELAEWLNAELIVSDWRPVKLRRGVFYQGFVTWEDGSIDRFSSWEELVYDAIRKKKGALIFVNMRRKAERVALELSKKVKSLLTKPEIRALNELADSLEENPTNEKLAKAIRGGVAFHHAGLGRDERVLVEENFRKGIIKAVVATPTLSAGINTPAFRVIIRDIWRYSDFGMERIPIIEVHQMLGRAGRPKYDEVGEGIIVSTSDDPREVMNHYIFGKPEKLFSQLSNESNLRSQVLALIATFGYSTVEEILKFISNTFYAYQRKDTYSLEEKIRNILYFLLENEFIEISLEDKIRPLSLGIRTAKLYIDPYTAKMFKDKMEEVVKDPNPIGIFHLISLTPDITPFNYSKREFERLEEEYYEFKDRLYFDDPYISGYDPYLERKFFRAFKTALVLLAWINEVPEGEIVEKYSVEPGDIYRIVETAEWLVYSLKEIAKVLGAYEIVDYLETLRVRVKYGIREELIPLMQLPLVGRRRARALYNSGFRSIEDISQARPEELLKIEGIGVKTVEAIFKFLGKNVKISEKPRKSTLDYFLKS” is “failed”.
Turning to “MRVHPDRGRTNLPPFKLRSSRSTYKALKEKANGDALTNAGDRSIFVPDGICQGKAAERCQKTRQRGVRSVKNLIVKIAAAALLVLAPAIAQAAEGYSTANVNMRAGPSTRYPAVAVIPAGSSVEIRGCLSNVNWCDVEFYGGRGWVSGQYVQAVYEQRRVYVGPQYYRPLGIPMVTFSVGNYWDRYYRGRDFYRERDRWSRGPDYYYRDRDYRDRDYRREYRDRDYQVREYRDRDRDRRDDARREERRREVRRDDDNRSSDFRDLPQFRGGKADTYNHPDPRASPFVCRPGDPSCGD”, the protein production entry is “failed”.
“MRVKTIMTQNPVTITLPATRNYALELFKKYKVRSFPVVNKEGKLVGIISVKRILVNPDEEQLAMLVKRDVPVVKENDTLKKAAKLMLEYDYRRVVVVDSKGKPVGILTVGDIIRRYFAKSEKYKGVEIEPYYQRYVSIVWEGTPLKAALKALLLSNSMALPVVDSEGNLVGIVDETDLLRDSEIVRIMKSTELAASSEEEWILESHPTLLFEKFELQLPNKPVAEIMTRDVIVATPHMTVHEVALKMAKYSIEQLPVIRGEGDLIGLIRDFDLLKVLVKSKA”: the protein production result is recorded as “not failed”.
The entry for “MRVLETIVALREYRKSLEESVGFVPTMGALHKGHQSLIERSLKENSHTIVSVFVNPTQFGANEDFNAYPRPLEKDLALCEKLGVNAVFVPKIGEMYPYEAEQRLKLYAPKFLSSSLEGAMRKGHFDGVVQIVLKMFHLVNPTRAYFGKKDAQQLLIIEHLVKDLLLDIEIAPCEIVRDDDNLALSSRNVYLNATQRKQALAIPKALEKIQQAIDKGEKACEKLKKLGLEILETLEVDYLECCNHKLEPLTIIEPTNTLILVAARVGKTRLLDNLWV” is “failed”; for “MRVLPLLLLIYPFAEIAALVALADRIGGLAVFLLVLLSSMLGLWMLRNQKLGALLTLGSVMRQGDKVSLYSLLWPLRYALAGLLFLLPGLLSDVAAVLLLLPLKGPDISLRATGAGPAAGPAGGSDIIEGEFSRVDETTPPGRRIQ” it is “failed”; for “MRVNILMSTYNGEKFVADQIESIQKQTYTDWNLIIRDDGSSDRTCEIVDDFVSKDNRIKLIRAENVGVIKSFHELVTDSNNADFYFFADQDDYWLPEKLSVMLEETKKHDNSKPVMYYTDLKVTDRNLNVTSESMIRGQSDHANTKLVQELTENTVTGGASMINHELAQLWQSTNDIIMHDWYLAIVAAALGELVYIDQPTHLYRQHDSNVLGARTLSKRIKKWIHPNLWFEKYWWLITASQKQAQKLLTENLSLMSEDDKALVSDYVNILKQPKAERRQILDRYNLRKNKNYHTSIFRTLIITKFAYKGKKTNEFLQP” it is “failed”.
The entry for “MRVSCVYATASRWGGPPVASEVRGDAAISTTPDAAPGLAARRRRILFVAEAVTLAHVVRPFALAQSLDPSRYEVHFACDPRYNQLLGPLPFRHHAIHTIPSERFFGNLTQGRFYAMRTLRKYVEADLRVLDEIAPDLVVGDLRISLSVSARLAGIPYIAIANAYWSPYAQRRFPLPDVIWTRLFGVRLVKLLYRLERPLLFALQCMPLNWVRRRHGLSSLGWNLCRIFTDGDHTLYADVPELMPTYDLPANHEYLGPVLWSPAGKPPTWWDSLPTDRPIVYATLGTSGGRNLLQLVLNALAELPVTVIAATAGRSDLKTVPANAFVADYLPGEAAAARSAVVVCNGGSLTTQQALVAGVPVIGVAGNLDQHLNMEAVERAGAGVLLRTERLKSQRVAGAVMQVISRSEYRQAAARLADAFGRDRVGFPQHVENALRLMPENRPRTWLAS” is “failed”.
